Here are results for six sequences from the Immune Epitope Database (IEDB).

Experiment [1] concerns the target HLA-B*18:01. Nature of the experiment: IEDB peptide-MHC binding, purified MHC/competitive/fluorescence; filed as Kd, often an IC50 or EC50 that approximates it; ≥ and ≤ were set here for values at or beyond the usual limits of such assays. To be noted: source organism: Homo sapiens.
The target in another experiment is HLA-A*30:01. The experiment is described as above. To be noted: source organism: Homo sapiens.
The target of another experiment is HLA-A*26:02. Described as above.
The target in another experiment is HLA-A*26:03. The description is as above.
The target in the next experiment is HLA-B*39:01. The experiment is described as above.
Another experiment deals with HLA-A*02:06. The description is as above.
Another experiment has as its target HLA-B*15:01. The experiment is described as above.
The target in another experiment is HLA-A*02:03. The experiment is described as above.
For another experiment, the target named is HLA-B*08:01. The experiment is described as above. To be noted: source organism: Homo sapiens.
A further experiment has as its target HLA-C*07:02. Nature of the experiment: IEDB peptide-MHC binding, purified MHC/direct/fluorescence; filed as Kd, often an IC50 or EC50 that approximates it; ≥ and ≤ were set here for values at or beyond the usual limits of such assays.
The target in the next experiment is HLA-A*24:02. Kind of experiment: IEDB peptide-MHC binding, purified MHC/competitive/fluorescence; filed as Kd, often an IC50 or EC50 that approximates it; ≥ and ≤ were set here for values at or beyond the usual limits of such assays.
In another experiment the target is HLA-C*15:02. Kind of experiment: IEDB peptide-MHC binding, purified MHC/direct/fluorescence; filed as Kd, often an IC50 or EC50 that approximates it; ≥ and ≤ were set here for values at or beyond the usual limits of such assays. To be noted: source organism: Rickettsia felis URRWXCal2.
The target in a further experiment is HLA-C*06:02. The description is as above. To be noted: source organism: Rickettsia felis URRWXCal2.
For the next experiment, the target named is HLA-C*14:02. Described as above. To be noted: source organism: Rickettsia felis URRWXCal2.
Experiment [2] addresses HLA-A*01:01. Nature of the experiment: IEDB peptide-MHC binding, purified MHC/competitive/fluorescence; filed as Kd, often an IC50 or EC50 that approximates it; ≥ and ≤ were set here for values at or beyond the usual limits of such assays. To be noted: source organism: Staphylococcus aureus subsp. aureus N315.
The next experiment deals with HLA-A*32:07. The experiment is described as above. To be noted: source organism: Staphylococcus aureus subsp. aureus N315.
The next experiment has as its target HLA-B*15:42. The experiment is described as above. To be noted: source organism: Staphylococcus aureus subsp. aureus N315.
Another experiment addresses HLA-B*45:06. Described as above. To be noted: source organism: Staphylococcus aureus subsp. aureus N315.
In the next experiment the target is HLA-A*29:02. Described as above. To be noted: source organism: Staphylococcus aureus subsp. aureus N315.
Another experiment concerns the target HLA-A*32:15. Described as above. To be noted: source organism: Staphylococcus aureus subsp. aureus N315.
The target in a further experiment is HLA-B*15:17. The experiment is described as above.
For a further experiment, the target named is HLA-A*26:01. Described as above. To be noted: source organism: Orthomarburgvirus marburgense.
The target of experiment [3] is HLA-B*18:01. Kind of experiment: IEDB peptide-MHC binding, purified MHC/direct/fluorescence; filed as Kd, often an IC50 or EC50 that approximates it; ≥ and ≤ were set here for values at or beyond the usual limits of such assays. To be noted: source organism: Marburg virus - Musoke, Kenya, 1980.
In another experiment the target is HLA-B*58:01. The experiment is described as above. To be noted: source organism: Marburg virus - Musoke, Kenya, 1980.
The target in the next experiment is HLA-A*69:01. The experiment is described as above. To be noted: source organism: Marburg virus - Musoke, Kenya, 1980.
For experiment [4], the target named is HLA-A*01:01. Described as above. To be noted: source organism: Marburg virus - Musoke, Kenya, 1980.
The target in the next experiment is HLA-A*11:01. The experiment is described as above. To be noted: source organism: Marburg virus - Musoke, Kenya, 1980.
The target in the next experiment is HLA-A*68:02. Described as above. To be noted: source organism: Marburg virus - Musoke, Kenya, 1980.
A further experiment concerns the target HLA-A*31:01. The experiment is described as above. To be noted: source organism: Marburg virus - Musoke, Kenya, 1980.
For a further experiment, the target named is HLA-B*73:01. Described as above. To be noted: source organism: Marburg virus - Musoke, Kenya, 1980.
Another experiment addresses HLA-B*07:02. The experiment is described as above. To be noted: source organism: Marburg virus - Musoke, Kenya, 1980.
Another experiment has as its target HLA-B*27:05. The description is as above. To be noted: source organism: Marburg virus - Musoke, Kenya, 1980.
In the next experiment the target is HLA-B*15:09. Described as above. To be noted: source organism: Ravn virus - Ravn, Kenya, 1987.
In another experiment the target is HLA-B*57:01. The description is as above. To be noted: source organism: Marburg virus - Musoke, Kenya, 1980.
The next experiment concerns the target HLA-B*48:01. Described as above. To be noted: source organism: Marburg virus - Musoke, Kenya, 1980.
The target in another experiment is HLA-B*08:02. The description is as above. To be noted: source organism: Ravn virus - Ravn, Kenya, 1987.
The target of a further experiment is HLA-A*02:01. Nature of the experiment: IEDB peptide-MHC binding, purified MHC/competitive/fluorescence; filed as Kd, often an IC50 or EC50 that approximates it; ≥ and ≤ were set here for values at or beyond the usual limits of such assays. To be noted: source organism: Human immunodeficiency virus 1.
In the next experiment the target is HLA-B*35:01. The description is as above. To be noted: source organism: Human immunodeficiency virus 1.
Where [5] appears, read: source organism: Orthomarburgvirus marburgense.
[6] abbreviates: source organism: Human immunodeficiency virus 1.

pKd: −log10 of the molar value.

For the sequence FRHSVVVPY, the negative-log Kd (pKd) (commonly −log10 of the Kd, conventionally taken in molar units) is 6.32 with HLA-B*18:01 [1]; 5.39 with HLA-A*30:01; no more than 4.70 with HLA-A*26:02 (source organism: Homo sapiens); no more than 4.70 with HLA-A*26:03 (source organism: Homo sapiens); no more than 4.70 with HLA-B*39:01 (source organism: Homo sapiens); no more than 4.70 with HLA-A*02:06 (source organism: Homo sapiens). For the same sequence, the negative logarithm of the Kd (pKd) with HLA-B*15:01 (source organism: Homo sapiens) is 6.50; with HLA-A*02:03 (source organism: Homo sapiens), no more than 4.70; with HLA-B*08:01, no more than 4.70; with HLA-C*07:02 (source organism: Homo sapiens), no less than 9.00.

For RWLPLVSLF, the pKd with HLA-A*24:02 (source organism: Rickettsia felis URRWXCal2) is no less than 10.00; in the experiment with HLA-C*15:02 it was no more than 4.70; with HLA-C*06:02 it was no more than 4.70; with HLA-C*14:02, 6.40.

For the sequence MVIKWIHER, the pKd with HLA-A*01:01 [2] was 4.77; in the experiment with HLA-A*32:07, 6.69; in the experiment with HLA-B*15:42, no more than 5.30; with HLA-B*45:06 it was no more than 5.30; in the experiment with HLA-A*29:02 it was 6.26; with HLA-A*32:15, 7.28.

In the case of ARHGEYAPF, the pKd with HLA-A*26:02 (setting [5]) was 6.13; with HLA-A*26:03 (setting [5]), no more than 4.70; in the experiment with HLA-B*15:17 (setting [5]), no more than 4.70; with HLA-B*39:01 (setting [5]), 5.96; with HLA-A*26:01, 5.40; in the experiment with HLA-B*15:01 (setting [5]), 5.48. For the same sequence, the pKd with HLA-B*18:01 [3], in the experiment with HLA-B*58:01, in the experiment with HLA-A*69:01, with HLA-A*01:01 [4], with HLA-A*11:01 and with HLA-A*68:02 was no more than 4.70 each time. Moreover, the pKd was no more than 4.70 with HLA-A*31:01; no more than 4.70 in the experiment with HLA-B*73:01; no more than 4.70 with HLA-B*07:02; 6.77 in the experiment with HLA-B*27:05; no more than 4.70 with HLA-B*15:09; no more than 4.70 with HLA-B*57:01. For the same sequence, the negative logarithm of the Kd (pKd) in the experiment with HLA-B*48:01 and in the experiment with HLA-B*08:02 was no more than 4.70 throughout.

Sequence EYLRIPLTI showed a pKd with HLA-A*24:02 (source organism: Entamoeba histolytica HM-1:IMSS) of no less than 10.00.

For the sequence LYNTIAVLY, the pKd with HLA-A*26:02 (setting [6]) is no more than 4.70; with HLA-B*15:17 (setting [6]), no more than 4.70; in the experiment with HLA-A*02:06 (setting [6]), 6.12; with HLA-A*02:01, 5.63; in the experiment with HLA-B*35:01, 5.73; with HLA-A*02:03 (setting [6]), 6.14. For the same sequence, the pKd in the experiment with HLA-C*07:02 (setting [6]) is 5.67.
